This note sets out measurements from patent US20170355734A1 (INSERM INSTITUT NATIONAL DE LA SANT ET DE LA RECHERCHE M …, published 2017).

Where two headings read alike, the source gives them in different places.

Test [1] concerns the target T1, wild-type rat apelin receptor-EGFP (rat, UniProt Q9JHG3 1-377, EGFP is fused at the C-terminal (intracellular) end of the receptor. It is not included in the letters.).
T1 sequence: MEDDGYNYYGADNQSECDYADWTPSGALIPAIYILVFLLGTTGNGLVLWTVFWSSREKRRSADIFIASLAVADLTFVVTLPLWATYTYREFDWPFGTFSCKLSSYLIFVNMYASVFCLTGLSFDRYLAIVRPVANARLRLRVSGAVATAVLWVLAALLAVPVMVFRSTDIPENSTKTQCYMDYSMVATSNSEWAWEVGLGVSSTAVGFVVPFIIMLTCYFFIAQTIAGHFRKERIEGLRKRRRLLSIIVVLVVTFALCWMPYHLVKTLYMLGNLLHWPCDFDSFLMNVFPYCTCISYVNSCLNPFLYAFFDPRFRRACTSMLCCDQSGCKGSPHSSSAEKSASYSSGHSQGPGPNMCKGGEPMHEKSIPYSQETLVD
As to the kind of experiment: cell-based or functional assay.

The target of test [2] is T1, wild-type rat apelin receptor-EGFP. Briefly: cell-based or functional assay. This is another data set of the same source.
For test [3] the target is unchanged. Briefly: competitive radioligand binding vs [125I]-pE13F, membranes of CHO cells expressing rat apelin receptor-EGFP.
For test [4] the target is unchanged. As to the kind of experiment: cell-based or functional assay. The source holds these as a separate data set.
The target is the same in test [5]. Briefly: competitive radioligand binding vs [125I]-pE13F, membranes of CHO cells expressing rat apelin receptor-EGFP. This is another data set of the same source.
Test [6] has the same target. Briefly: cell-based or functional assay. This is another data set of the same source.
Test [7] shares this target. As to the kind of experiment: D-scanning; competitive radioligand binding vs [125I]-pE13F, rat apelin receptor-EGFP in CHO membranes.

AT1 receptor, sequence (P30556 whole entry): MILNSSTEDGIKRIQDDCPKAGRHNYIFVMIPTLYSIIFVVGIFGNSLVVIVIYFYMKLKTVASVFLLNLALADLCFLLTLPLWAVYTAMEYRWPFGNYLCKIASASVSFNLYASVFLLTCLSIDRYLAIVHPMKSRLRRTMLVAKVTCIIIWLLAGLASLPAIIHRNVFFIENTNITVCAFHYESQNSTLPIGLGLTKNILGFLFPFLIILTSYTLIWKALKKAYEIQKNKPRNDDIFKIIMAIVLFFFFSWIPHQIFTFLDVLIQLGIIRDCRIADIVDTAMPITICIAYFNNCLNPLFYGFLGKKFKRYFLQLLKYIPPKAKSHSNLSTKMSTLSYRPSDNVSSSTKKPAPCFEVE

B1: P26 (peptide)
peptide: RPRLSXKAPXPF
HELM: PEPTIDE1{[ac].R.P.R.[dL].S.[Aib].K.[dA].P.[Nle].P.[O=C(O)[C@H](Cc1ccc(Br)cc1)N[*:1]]}$$$$V2.0
SMILES: CCCC[C@H](NC(=O)[C@@H]1CCCN1C(=O)[C@@H](C)NC(=O)[C@H](CCCCN)NC(=O)C(C)(C)NC(=O)[C@H](CO)NC(=O)[C@@H](CC(C)C)NC(=O)[C@H](CCCNC(=N)N)NC(=O)[C@@H]1CCCN1C(=O)[C@H](CCCNC(=N)N)NC(C)=O)C(=O)N1CCC[C@H]1C(=O)N[C@@H](Cc1ccc(Br)cc1)C(=O)O
In general, Ki refers to a dissociation constant, usually derived from enzyme kinetics or from competition with a known ligand. Low values mean higher affinity, high ones lower affinity. Regarding B1, in test [1], the ERK1/2 phosphorylation EC50 is 72.1 nM, the Internalization EC50 is 2.1 nM, the cAMP production IC50 was 2.22 nM and the inhibition of forskolin-induced cAMP production IC50 was determined as 4.4 nM. In test [2], this molecule came in with an ERK1/2 phosphorylation EC50 of 71.3 nM and an ERK1/2 phosphorylation EC50, fold against K17F of 18 fold. This molecule also showed a Ki in test [3] of 2.11 nM. Besides, in test [4], the Inhibition of FSK-induced cAMP production IC50 stood at 2.22 nM and the Internalization EC50 turned out to be 2.11 nM.

B2: P92 (peptide)
peptide: KFRRQRPRLSXKAPXPF
HELM: PEPTIDE1{[ac].K.F.[dR].R.[dQ].R.P.R.[dL].S.[Aib].K.[dA].P.[Nle].P.[O=C(O)[C@H](Cc1ccc(Br)cc1)N[*:1]]}$$$$V2.0
SMILES: CCCC[C@H](NC(=O)[C@@H]1CCCN1C(=O)[C@@H](C)NC(=O)[C@H](CCCCN)NC(=O)C(C)(C)NC(=O)[C@H](CO)NC(=O)[C@@H](CC(C)C)NC(=O)[C@H](CCCNC(=N)N)NC(=O)[C@@H]1CCCN1C(=O)[C@H](CCCNC(=N)N)NC(=O)[C@@H](CCC(N)=O)NC(=O)[C@H](CCCNC(=N)N)NC(=O)[C@@H](CCCNC(=N)N)NC(=O)[C@H](Cc1ccccc1)NC(=O)[C@H](CCCCN)NC(C)=O)C(=O)N1CCC[C@H]1C(=O)N[C@@H](Cc1ccc(Br)cc1)C(=O)O
A word on the IC50: it is the concentration that inhibits the measured activity by half. Higher therefore signals a need for much substance. In test [1], B2 showed an ERK1/2 phosphorylation EC50 of 3.42 nM, an Internalization EC50 of 0.38 nM, a cAMP production IC50 of 0.56 nM and an inhibition of forskolin-induced cAMP production IC50 of 0.2 nM. In test [5], this molecule had an IC50 of 0.21 nM and a Ki of 0.2 nM. The same molecule had a selectivity factor towards the AT1 receptor with respect to the apelin receptor in the test with AT1 receptor of 100 fold. Moreover, the cAMP production IC50 in test [6] was 0.62 nM. In addition, in test [3], the Ki came out at 0.09 nM. Moreover, in test [4], the Inhibition of FSK-induced cAMP production IC50 turned out to be 0.56 nM.

B3: pE13F(D-Ala^9) (peptide)
peptide: XRPRLSHKAPMPF
modifications: pGlu at 1; D-Ala at 9
In test [1], B3 displayed an inhibition of forskolin-induced cAMP production IC50 of 43 nM. Moreover, the Ki in test [7] stood at 4.3 nM.
